Test system: K4 kissing-loop RNA reporter
Assay: apparent KD of K4 kissing-loop reporter; higher = weaker reporter binding
Details: Eterna round: R107
Protocol: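 RNA-MaP round R107: designed RNA switches with theophylline, tryptophan, arginine or FMN aptamers are transcribed on-chip within common flanks. They are titrated with a labelled K4 kissing-loop RNA reporter in RNA-MaP buffer (100 mM Tris pH 7.5, 80 mM KCl, 4 mM MgCl2), without ligand or with the indicated ligand. Median apparent KD per design.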

[1] = input ligand: theophylline 20 uM
[2] = input ligand: tryptophan 2.4 mM
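Note: bound reporter read as fluorescence of individual clusters on recovered sequencing chips by microscopy, with normalized cluster intensities fitted with a binding model.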

Row | Sequence | apparent KD of K4 kissing-loop reporter (input ligand: FMN 200 uM) [nM] | apparent KD of K4 kissing-loop reporter (input ligand: arginine 13.2 mM) [nM] | apparent KD of K4 kissing-loop reporter (input ligand: none) [nM] | apparent KD of K4 kissing-loop reporter [1] [nM] | apparent KD of K4 kissing-loop reporter [2] [nM]
1 | CGUCGGUAGUGAUGUUGCCACGACGCUUUUAAGGAUAUAAGCUAAGUUAGAAGGUAAGAGAGUCAGCCCGGUGGCCUUAGAGUAG [theeternabot_exclusion_KL_FMN_A_17] | 257 | 186 | 195 | 162 | 151
2 | AUGUAUAUCUCAGGAUAUAUAUGUGUGUGGUGUAUACAUAGUGAUGUUGUGUAUAUCCACAUAUGUAUAGAAGGGAGAUGUGCAU [Skye_SS_FMNB] | 76.3 | 73.5 | 73.9 | 66 | 72
3 | CCAUCGCUAUUCGAUACCAGUCAGGAGGUCUUUGGCCUCCUAAUGGAGUGAUGUUCCUUAGACCCUUGGCAGCGAAUAGUGAUGG [Theophylline B K4 14] | 630 | 171 | 405 | 448 | 249
4 | GAUAGGAAACUAUCAAAUCGGGAAACCGAUACCAGUAUGGAUUCAUACCCUUGGCAGCGGGAUUAUAAAAUAGGAGUGAUGUUCC [Theophylline A K4 16] | 219 | 213 | 220 | 241 | 189
5 | CCGGUUCCAACGCUGACUGAAGAACAUGAUACCAGUCGAGGACUCGACCCUUGGCAGCAUUAUAGAGUGAUGUUCGCUUCAGAAA [theeternabot_sameState_KL_Theo_A_15] | 157 | 140 | 189 | 367 | 117
6 | GUAUCGCUAGGAGGAUAUUUCGUUUUUCAUAGCAAUGGCUGUGCGGAGUGAUGUUCCGAUUUACCGGAAGAAGGCCUAGUGAUAC [FMN B 27] | 107 | 165 | 180 | 158 | 161
7 | AAUAAAAUCACGGCCGCCACUGAUUACCAUAUUAGGAGUGAUGUUCCUAUGACUAUAUAAUUUAACAGGACCGGGUGAAUAUUUA [JR_ExcTryptoB_Sub011] | 105 | 103 | 107 | 106 | 94.3
8 | GGCCGCAAGGCGAGCGCUCCCACUCCGGAAGGAGCGCCCGCAAGGGCAGGUAGGUCGCCGGAGUGAUGUUCCGGUGGAGGGCUCG [#2 Exclusion - Arginine A Attempt #16 (Inspired by Omei)] | 398 | 271 | 369 | 127 | 338
9 | UUCUUGAUGGAAACAUCGAGGAUCACUGAUACCAGUAUCGAUAGAUACCCUUGGCAGCAGUGUCGGUGGUCACGAGUGAUGUUCG [Ex Theophylline A K4 12] | 718 | 731 | 811 | 719 | 787
10 | AAUACGAAGCAGUGAUGUUGCUUAUGAGAAGGAGCGCACGAAAGUGCAGGUAGGUCGCUCAGCCAAGUGGACGAAAACGUCCACA [whbob_SS_Arginine_A_sa108] | 96.4 | 116 | 98.4 | 127 | 90.6
11 | UCGCAUCUCAGAAGGAGCGACAGUGAUUCUGAUAGAAAUCUGAGUGAUGUUCAGAACAGCUGUCAGGUAGGUCGCUGAGAUGCGA [Arg B Ex t8] | 813 | 384 | 547 | 413 | 314
12 | AGGAUCACGUCAGUGAUGUUGACAAGAGAUACCAGAGACGAAAGUCUCCCUUGGCAGCUCAUUGUGAUCCGUGACAAAGGUCACA [Omei KL hio A SS C v2] | 353 | 293 | 413 | 593 | 186
13 | AGUCCUAUGACGGCCGCCACUCCGGUUAUGAUUUGCCAAGUGAUGUUUGGGUAUCAGGCGAGGCGGAGGACCGGGUCGACCUGCC [theeternabot_exclusion_KL_Trp_B_18] | 171 | 139 | 151 | 129 | 152
14 | GAUUGGCGGACGGCCGCCACUCGGACGAGUCACAGUGAUGUUGUGGUUUGCCAGUCGACUUCAUCGAGGACCGGGUUUGUCGGGC [Exclusion Tryptophan B GF 21] | 592 | 407 | 497 | 405 | 349
15 | AAAGUCGGCUGUGAUACCAGUCAUAUAACAACAUAUCGCAGUGAUGUUGCGAGAUAGGAUGACCCUUGGCAGCACUCAGUACGAU [Same State Theophylline B GF 6] | 349 | 360 | 380 | 331 | 338
16 | AAGCAGUCCCUUGUUGUCAUCGAAGAUGAACGAGGACCGGUACGGCCGCCACUCGGAGUGAUGUUCCGAAGGCUGCAAAAUAAAA [MatMod 20 - Jieux - Exclusion - Tryptophan A] | 109 | 112 | 116 | 115 | 205
17 | CACGAUGAAUUCUCUAGGAGUGAUGUUUUUCGAGGACCGGUACGGCCGCCACUCGGACCAGGAGCGUGGUAGCGGCGAAAAGACU [zpmullin] | 769 | 256 | 545 | 523 | 484
18 | CCAGGAUGAUGAGGAUGAUAAAUUACUGAAGGAGCGCAUAUGGUUGCAGGUAGGUCGCGGUGAAUAAGUAUAGUGAUGUUAUGCC [SSArgA.Y] | 970 | 612 | 561 | 801 | 761
19 | GUCCACACUGCAGGAUAUGGAGGUAUAGCGAGGGAGUGUGGAAGCACACCUCUGGCAGUGAUGUUGCCAGAAGGGCGGUGCGGCG [Masodionra] | 118 | 103 | 119 | 90.3 | 93.2
20 | UGUGAUGUUGUGAUGUUUAGUGUUGUUGGGCAGGAUAUUGUAGAGGCGAGAAGGGCUAGUGUGAUGUAUGAGUGAUGUUUGUAGU [kkollmullin] | 127 | 111 | 246 | 177 | 186
21 | ACGCUGGAUGAAUAACAUCUAGCGAAAAUUCGAGGACCGGUACGGCCGCCACUCGAGCUAACUGCGAGUGAUGUUCGAUAAUAAA [Mat - Mod of OpenEnded 3 - D6] | 196 | 374 | 309 | 497 | 72.1

Reference: the supplement of paper PMC9170038
